According to patent US20110152166A1, “METHOD OF MODULATION OF PROTEIN PHOSPHORYLATION-DEPENDENT CONFORMATIONAL TRANSITIONS WITH LOW MOLECULAR WEIGHT COMPOUNDS” (priority 2006, published 2011):

Biological target: T1, S6K11-364K144N (Rattus norvegicus, UniProt P67999, K167N)
T1 construct: Purified HA-S6K1-364 was incubated with synthetic S6K1 (rat) tail peptides; made in house; host or cells: COS7; anti-HA immunoprecipitate
Experiment: S6K1 in vitro reconstitution kinase assay with tail peptides
Type: biochemical
Details: peptide 90 μM
Description: FIG. 13. The tail phosphate synergistically enhances the ability of the HM phosphate to activate S6K, dependent on the tail phosphate-binding site. (A) The kinase activity of purified kinase domain of S6K1 (S6K11-364), pre-phosphorylated by PDK1 in the activation loop, was determined in the presence of increasing concentrations of synthetic S6K1 tail peptide (residues 366-395) that was either non-phosphorylated (S371/T389), phosphorylated at Ser371 (pS371/T389) or Thr389 (5371/pT389) or phosphorylated at both sites (pS371/pT389). (B) The kinase activity of S6K11-364 and S6K11-364K144N, either pre-phosphorylated or not by PDK1, was determined in the absence or presence of 90 μM S371/pT389 or pS371/pT389. (C) pS371/pT389 S6K1 tail peptide was biotinylated and used to coat streptavidin Sensor Chips. The chips were thereafter analyzed for binding to purified GST-S6K11-365 or GST-56K11-365K144N. (A-C) Experiments were repeated at least 3 times and activity data (expressed as percent) are means±SD.
We established an in vitro reconstitution assay that could test a direct activation of the AGC kinase domain by the tail phosphate and characterize its cooperation with the HM and activation loop phosphates. […] Subsequently, the kinase activity of S6K11-364 was determined. […]

T1 sequence (P67999 24-387 K167N): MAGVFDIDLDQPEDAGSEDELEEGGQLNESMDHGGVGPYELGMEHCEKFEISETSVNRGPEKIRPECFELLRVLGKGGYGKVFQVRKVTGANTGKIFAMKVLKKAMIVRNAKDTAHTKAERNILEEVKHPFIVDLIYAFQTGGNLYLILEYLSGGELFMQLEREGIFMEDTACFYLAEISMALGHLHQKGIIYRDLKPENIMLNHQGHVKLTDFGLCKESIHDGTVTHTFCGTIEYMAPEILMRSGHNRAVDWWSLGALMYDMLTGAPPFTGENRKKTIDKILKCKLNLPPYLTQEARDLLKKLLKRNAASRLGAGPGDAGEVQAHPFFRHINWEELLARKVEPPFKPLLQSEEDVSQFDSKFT

activation of S6K11-364K144N (in words): activated normally
Substance: S371/pT389: synthetic S6K1 tail peptide (residues 366-395) phosphorylated in the HM
